Data published in the DeepSol protein solubility set.

Experiment: soluble on expression in E. coli; label from the status in PepcDB or PDB records

Which “soluble on expression in E. coli” value does the source give for “MGSDKIHHHHHHMFQPLLDAFIESASIEKMVSKSPPPPLKIAVANWWGDEEIKEFKKSVLYFILSQRYAITLHQNPNESSDLVFSNPLGAARKILSYQNTKRVFYTGENESPNFNLFDYAIGFDELDFNDRYLRMPLYYAHLHYEAELVNDTTAPYKLKDNSLYALKKPSHHFKENHPNLCAVVNDESDLLKRGFASFVASNANAPMRNAFYDALNSIEPVTGGGSVRNTLGYKVGNKSEFLSQYKFNLCFENSQGYGYVTEKILDAYFSHTIPIYWGSPSVAKDFNPKSFVNVHDFNNFDEAIDYIKYLHTHPNAYLDMLYENPLNTLDGKAYFYQDLSFKKILDFFKTILENDTIYHNNPFIFYRDLHEPLISIDDLRVNYDDLRVNYDDLRVNYDDLRVNYDDLRVNYDDLRVNYDDLRVNYDDLRVNYDDLRVNYDDLRVNYDRLLQNASPLLELSQNTTFKIYRKAYQKSLPLLRTIRRWVKK” here?
Its value is “not soluble”.

Which “soluble on expression in E. coli” value does the source give for “MPMKDISDFAANDPNKDYCVYCSRPDGEMQSFEEKKESLTKFIVKTQGADENVAWKIAENMMHKLPAWKEYFN” here?
The value was “not soluble”.

For “MEPKDTTTNDAFKGFTNTACPFLPCHKGVKREFNCLFCYCPLIAYECPGPYQVYTDKNGLTRKDCTNCTLPHDGYLASWNFIQKWLERPVIWSGAAQTTPPTRRPGRAPGDGDEELEHHHHHH”, which “soluble on expression in E. coli” value is on record?
Its value is “soluble”.

For “MTQPLVGKQILIVEDEQVFRSLLDSWFSSLGATTVLAADGVDALELLGGFTPDLMICDIAMPRMNGLKLLEHIRNRGDQTPVLVISATENMADIAKALRLGVEDVLLKPVKDLNRLREMVFACLYPSMFN”, which “soluble on expression in E. coli” value is on record?
Its value is “soluble”.

For “MTTFPTLDPELAAALTMLPKVDFADLPNARATYDALIGAMLADLSFDGVSLRELSAPGLDGDPEVKIRFVTPDNTAGPVPVLLWIHGGGFAIGTAESSDPFCVEVARELGFAVANVEYRLAPETTFPGPVNDCYAALLYIHAHAEELGIDPSRIAVGGQSAGGGLAAGTVLKARDEGVVPVAFQFLEIPELDDRLETVSMTNFVDTPLWHRPNAILSWKYYLGESYSGPEDPDVSIYAAPSRATDLTGLPPTYLSTMELDPLRDEGIEYALRLLQAGVSVELHSFPGTFHGSALVATAAVSERGAAEALTAIRRGLRSLSPVS”, which “soluble on expression in E. coli” value is on record?
The value was “soluble”.

Which “soluble on expression in E. coli” value does the source give for “MNEFEDLLNSVSEVNPGDVVTAEVLTVDNGQANVVIDGTGVEGVLTLRELTNDRDADINDFVKAGDTVEVLVLRQVVGKDTDTVTFLVSKKRLEARKAWDKLVGREGEVVTVKGTRAVKGGLSVEFEGLRGFIPASMIDTRFVRNTEKFVGQEFDAKIKEVDAAENRFILSRREVVEESAAAARKEVFSNIEVGSVVTGKVARLTSFGAFIDLGGVDGLVHVTELSHERNVSPKSVVTVGEEVEVKVLSIDEEAGRVSLSLKATTPGPWDGVEQKLAAGDVIEGKVKRLTDFGAFVEVLPGIDGLVHISQISHKRVENPKDVLSAGQEVTVKVLEVNSDAERVSLSMKALEERPAQAEGEKEEKRQSRPRRPRRQEKRDYELPETQTGFSMADLFGDIELLEHHHHHH” here?
The value was “soluble”.

With “MGSDKIHHHHHHMRIVFVGTPEFAAEILEHLIKNGFNVVGVVTQPDKPRGRGRKVAPTPVKAVAEKHEVPFIQPESINKKEALEFLRSVRPDVIIVASYGKILGEKVLSLPRLGCYNIHPSLLPKYRGASPIQRVLENGEERTGVTIYKMVKELDAGPIALQKEISVDPFETFDQLEKRLIELSKEMLIEFLEKLKTGNIELKEQDHSRATYAPMIKKEDLIVDFSKDAESVKNKIRAYDSRPGARAFLGNVEVKLFGVTAIDSSGDEPGLINYIDREGAWIGTGDGKVKVRYIQFPGKKKMTFWEAKNGRLIIEGMRFERRYES” as the sequence, how does the “soluble on expression in E. coli” value read?
Its value is “not soluble”.

For “AAAMVPGRSESWERGEPGRPALYFCGSIRGGREDRTLYERIVSRLRRFGTVLTEHVAAAELGARGEEAAGGDRLIHEQDLEWLQQADVVVAEVTQPSLGVGYELGRAVAFNKRILCLFRPQSGRVLSAMIRGAADGSRFQVWDYEEGEVEALLDRYFEADPPGQV”, which “soluble on expression in E. coli” value is on record?
Its value is “not soluble”.

For “MFKGDMNKKRAKALQKVKEAITLHGGQTILSTGITGDDARLAKAVCEAGVKLLEPNHPALALARGHKGVSNMHAAEQIRHEITNSQMAEAVHGVRNVVPDDIFITVGIAGGFTETLPVPLSEKEILEIARAGADGLHTHKSDWDDLQDIVNLAHQYGLTVDAYIGHPDDLHTFGIPARTPEEVASVAKRMQDIGVDMIGLMTGMSYEGVAAGDIPQMIKDRLRALVGAVDVPTLAEGGINLANAKAFKDTGVNILVVGTAIDNMVCNAAKEAVTPFIVH”, which “soluble on expression in E. coli” value is on record?
Its value is “soluble”.

Which “soluble on expression in E. coli” value does the source give for “MQFSTLIRVAVFAVLAIATLADYDDNSVGTIPVAVDLDYFSNYVKKGGPQGPLRFGKRRGPSGPLRFGKRSSFHVAPAAEDVASWYQ” here?
The value was “not soluble”.

With “MGANGSTEDYNAIAEETRNYQIQEAARRKEHLEALERQDAKRRETLAETTRAQLAAAEAEQKRKDEMQQKMMESNLAAQVARNKRIDNAQNQQNLNIEKEIENSNNWLDKQRTANQAVMAQRYTDHQNVLTREKERLTETEIRLENNLVDAKKMLENTQNQFNDDKIGYHEKKVQQMNENASKIELLVSQTTNLVLEQEKNDIVHKLAIQGMEQRTILNRGAIIQAQSLDSVEREFIDAVNSTRQKGNEVANSISRMGSYAFQLKPEDPVWSRTSQVAYCKKEIQKVDLLLEVLSDNTEEISKQRENRNQEVLRCHAVACLIQNAITTVRNSLNQFGASLQENTFTNCIGYYTDLLEKNKTLTDVIVQLPAVSRSNHTTSAIMYSSQRFAIDVQNDRLALEQKGQLALQNMINGNGGNTT” as the sequence, how does the “soluble on expression in E. coli” value read?
The value was “not soluble”.

Which “soluble on expression in E. coli” value does the source give for “MAHHHHHHSLKQKNAYNRLTNHYDDVLTGRKWWSWLYMHCLWKTDDNIIAGSVLDMIPGNFEGRILDVPVGTAIFTYDKYRRMPQAEIVGLDYSQEMLDIAAMRFSAEQITNVSLRQGDVGSLPFPDAAFDLVLSMNGFHVFPDKDRAFAETFRVLRGGGLFCGCFYVKGERKPADWFVRKFLDKKGLFRPPHYTREEAIEKLRSLYGDNVEIQDARSLLVFKCTKPREG” here?
The value was “soluble”.

For WLFFRYMAIGGYVGAATVGAAAW, which “soluble on expression in E. coli” value is on record?
Its value is “soluble”.

Which “soluble on expression in E. coli” value does the source give for “MGSDKIHHHHHHMTPIAQRDGQAIQLVGFDGDDTLWKSEDYYRTAEADFEAILSGYLDLGDSRMQQHLLAVERRNLKIFGYGAKGMTLSMIETAIELTEARIEARDIQRIVEIGRATLQHPVEVIAGVREAVAAIAADYAVVLITKGDLFHQEQKIEQSGLSDLFPRIEVVSEKDPQTYARVLSEFDLPAERFVMIGNSLRSDVEPVLAIGGWGIYTPYAVTWAHEQDHGVAADEPRLREVPDPSGWPAAVRALDAQAGRQQ” here?
Its value is “not soluble”.

With “MSLKGRPIKEFSLVMDLSQAKKGADKMGYMEDLRKRVGTRPLILPASVVIILNEQDEILLQKRLDGRWGLPGGLMELGESFEETAKREILEETGLTIKNVTFLDVFSGKDLYVKVENGDEFYAVTALFMTREVAGGIQMDPRESLDLQYIALDQFPPNVTRTSKIFLDRFMELKEGHHHHHH” as the sequence, how does the “soluble on expression in E. coli” value read?
The value was “soluble”.

For “MGFEQLAELRDRLRAQAAQAKPAQTKSSAGRAKKREAVEPGVEAIWRLQRHFPLAFPKSPAAKVPLKQGILQDAQQHLELLGITAEQLKQAIATWCQGSRYWSCMVEDAPRLDLQGQVAGKVTAEQAVYARRQASRRQREQMREKRAKRAQAGGEAPAATEAPTPEAPATEASPEAN”, which “soluble on expression in E. coli” value is on record?
Its value is “not soluble”.

With “MSLSTFDYDLIIIGSGPSGRAAAIQAGKLKRRVLVIDRKDRLGGVSVHTGTIPSKTLRETVLNLSGWRERSFYGRSYRVKDRISAEDLKARLHMTLDYEVDVLEHQFNRNHIDTLNGLARFVGPHEIEVATEAGDTTRLTAAKFLIATGTKTYRPDYVPFNGKTVVDGDDFLEMERIPRSLAVIGAGVIGVEYASMFSALDVRVTLIEPRETFLDFIDRTLIQEFTHQIRENGVDLRLGSAVEKIEDTGSHIEISLANGRHIRAEMLLFAAGRMGATSALNLDAVGLETDHRNRITVDRKTYQTSVPHIYATGDVIGHPSLASTSMQQGRVAACHALETPTLPESPWFPYGIYSVPEMSTCGMSEEELQERGIPYEVGVARFRETSRGHIMGLEHGMLKMLLSLKTRRVLGVQIVGEGATELIHIGQAVMNLKGTVDYFVQNTFNYPTLAEAYRTAGLDAFNRMPIPEEFKVKEGHHHHHH” as the sequence, how does the “soluble on expression in E. coli” value read?
The value was “soluble”.

With “MITPVSSFSIDDLLRGHSNEIQRILKLDQTSPTPQSSSDEGSEKSSISVMSVPLTNELTPTITPALSDQLWLAAAAFPIEHSLLLAQRNGVFPGFWSTADQIRLSNATKAYRRLRLECSRRKARTVFSDQQLQGLERRFESQRYLSTPERIELANALNLSETQVKTWFQNRRMKHKKVVRKDDNSVDDDNGNDNESE” as the sequence, how does the “soluble on expression in E. coli” value read?
Its value is “not soluble”.

Which “soluble on expression in E. coli” value does the source give for “MPLPYDKEKKLWKVTGWYLESSEETGEVMQSKQIAFEGYTNEENFANRQRVSVFKSFYESGNLKSIYHYNAQNKRDGKAETYFDEKDKIAETLTFKDGQPEGEYIVYHENGAVESKRYFAQGKIKDGECPHFYDNGVLKQKHSYLNQKLEGPAFEYFPDGKIKGKYSYSKGTIVGTSTEYYSTGKIRGVYHRNNQGENDGTFEQYSEEGKLLSKATYKNGKQLSAQSWYENGHPKEESSFDSEGRKHGAVKEWFSNGKPASSKMYKHDVLDGDFEKWYENGHRESVYPYKNGMLNGDAKHWNEQGKLTYTTEYKDDKKQGADRRWSERTGKLVEEVMFANDERNGLKREFNDRTGKVLSALPYVDGDKEGTEEAYDEDGIKYIRCYHNDEELSELYAPTDVTNKAKQGDSTAQYHLGKYEFECTNYDAAMKWLTQSAEQNHPGALLFLAYAYNDGDGVAQDSKKYLSYLFKAAELGESDAQLEVGYLNLIGEGMPKNLPEAYKWIKKSADQGNAQAHYNLGLMYRNGDGVEKDLNKAKLHLTAAVKGGVKPALAALKELTPQTKLEHHHHHH” here?
The value was “not soluble”.

Which “soluble on expression in E. coli” value does the source give for “MAHHHHHHMEENNQVEKNKGTNQLCFVKMLVNNLVAGSVIGKNGSIITSIENKTGCSLKLSPTNSYFPNTQERVLVLCGKQEQINNALLIILDKIRQITVQSFQDKQNMNTVPKYTCRIVIPKSAASAIIGKGGQQIKQLQDSTGAKIQISSREDGLNERIISIIGPFESISDTAIKVTNSIQNDPNLKDLLNVIYNKDTNMNGRSSLSQNFVNQVPLNGYVVPQQYGVFQHEQYMDVNMMNSLMRHSRDLFNLPCEISIQIPDEFIGSVIGKNGSRLTNIMNSTGAQIRISRKGELIPGTADRKVRIMGTVAAVHGAHVLLLQRLESVYMQLRTMQVKCDA” here?
The value was “soluble”.

With “WNHDEEARGSVRWRTLFDTALTSENVILYAQSVHSISDATHKKALHEELTCRIRDPENGIVKASRFISAIRQVGYEAQMDRAVLHKFLKDFKENFDSSKNYALNLNVTPFSSREYFKWFRDELLQLSREQRKCLNFEFVEAQFVRHLDFMRPVAKMLAGLGCHLMVGQAGRTIVSTHYLKEVDIRYLKLHRSLVAKIDQRHENQLFVRSMLGAAANSKTKIIAVGIENQQELNTLLELGVYGGQGRYFSAE” as the sequence, how does the “soluble on expression in E. coli” value read?
Its value is “not soluble”.

For “GAMGKVGVGKKAEAVATVVAAVDQARVREPREPGLPEDSYAQQTTLEYGYKEH”, which “soluble on expression in E. coli” value is on record?
Its value is “soluble”.

Which “soluble on expression in E. coli” value does the source give for “MSDSWTERWNDRYSNEIFAYGEKPNNYLKAQLENLQPGTILFAAEGEGRNAVFAACLGWDVQAFDISSEGKKKAFQLAEKNQVTIAYQVGQLETLGYTAGQFDALALIYAHFPATVKSAYHRILSSYVRSGGYIIFEAFSKKHLDYLAKNEQVGGPKEFDMLFSIEEIKADFPDYEILELEEKEIELNEGQFHNGTGSVIRFTGRKKLEHHHHHH” here?
Its value is “not soluble”.
